Experimental data as given in patent US20110256132A1 (published 2011).
* marks the point of attachment. Biotin = O=C1N[C@H]2[C@H](CS[C@H]2CCCCC(=O)*)N1

Assays:
Experiment in all cases: SRU BIND reader, peptides captured on streptavidin biosensor plate
[1] = molecular target: T1, artificial myostatin linear peptide 3 (cysteine pairing not given here)
T1 construct: also called Peptide No 3
T1 peptide: Biotin-SGSGDCDEHSTESRCCRY-NH2
Procedure: (§1) Work was carried out on an SRU BIND reader (SRU Biosystems). A streptavidin biosensor plate was washed, a baseline reading taken, and biotinylated peptides captured onto the streptavidin coated biosensor plate. The plate was washed again, and a new baseline reading taken, antibody was then added and binding monitored.

[2] = molecular target: T2, artificial myostatin linear peptide 45 (SMILES …)
T2 construct: also called Peptide No 45
T2 peptide: Biotin-SGSGGKEQIIYGKIPAMV-NH2
Procedure: as §1

[3] = molecular target: T3, artificial myostatin linear peptide 7 (cysteine pairing not given here)
T3 construct: also called Peptide No 7
T3 peptide: Biotin-SGSGSRCCRYPLTVDFEA-NH2
Procedure: as §1

[4] = molecular target: T4, artificial myostatin linear peptide 23 (SMILES …)
T4 construct: also called Peptide No 23
T4 peptide: Biotin-SGSGGECEFVFLQKYPHT-NH2
Procedure: as §1

[5] = molecular target: T5, artificial myostatin linear peptide 9 (SMILES …)
T5 construct: also called Peptide No 9
T5 peptide: Biotin-SGSGRYPLTVDFEAFGWD-NH2
Procedure: as §1

[6] = molecular target: T6, artificial myostatin linear peptide 49 (cysteine pairing not given here)
T6 construct: also called Peptide No 49
T6 peptide: Biotin-SGSGGKIPAMVVDRCGCS-OH
Procedure: as §1

[7] = molecular target: T7, artificial myostatin linear peptide 1 (not fully specified)
T7 construct: also called Peptide No 1
T7 peptide: H-DFGLDCDEHSTESRGSG-NH2
Procedure: as §1

[8] = molecular target: T8, artificial myostatin linear peptide 39 (SMILES …)
T8 construct: also called Peptide No 39
T8 peptide: Biotin-SGSGTKMSPINMLYFNGK-NH2
Procedure: as §1

[9] = molecular target: T9, artificial myostatin linear peptide 13 (SMILES …)
T9 construct: also called Peptide No 13
T9 peptide: Biotin-SGSGEAFGWDWIIAPKRY-NH2
Procedure: as §1

[10] = molecular target: T10, artificial myostatin linear peptide 31 (cysteine pairing not given here)
T10 construct: also called Peptide No 31
T10 peptide: Biotin-SGSGVHQANPRGSAGPCC-NH2
Procedure: as §1

[11] = molecular target: T11, artificial myostatin linear peptide 21 (cysteine pairing not given here)
T11 construct: also called Peptide No 21
T11 peptide: Biotin-SGSGNYCSGECEFVFLQK-NH2
Procedure: as §1

[12] = molecular target: T12, artificial myostatin linear peptide 43 (SMILES …)
T12 construct: also called Peptide No 43
T12 peptide: Biotin-SGSGLYFNGKEQIIYGKI-NH2
Procedure: as §1

[13] = molecular target: T13, artificial myostatin linear peptide 41 (SMILES …)
T13 construct: also called Peptide No 41
T13 peptide: Biotin-SGSGPINMLYFNGKEQII-NH2
Procedure: as §1

[14] = molecular target: T14, artificial myostatin linear peptide 15 (SMILES …)
T14 construct: also called Peptide No 15
T14 peptide: Biotin-SGSGWDWIIAPKRYKANY-NH2
Procedure: as §1

[15] = molecular target: T15, artificial myostatin linear peptide 5 (cysteine pairing not given here)
T15 construct: also called Peptide No 5
T15 peptide: Biotin-SGSGHSTESRCCRYPLTV-NH2
Procedure: as §1

[16] = molecular target: T16, artificial myostatin linear peptide 47 (SMILES …)
T16 construct: also called Peptide No 47
T16 peptide: Biotin-SGSGIIYGKIPAMVVDRC-NH2
Procedure: as §1

[17] = molecular target: T17, artificial myostatin linear peptide 11 (SMILES …)
T17 construct: also called Peptide No 11
T17 peptide: Biotin-SGSGTVDFEAFGWDWIIA-NH2
Procedure: as §1

[18] = molecular target: T18, artificial myostatin linear peptide 25 (SMILES …)
T18 construct: also called Peptide No 25
T18 peptide: Biotin-SGSGFVFLQKYPHTHLVH-NH2
Procedure: as §1

[19] = molecular target: T19, artificial myostatin linear peptide 17 (SMILES …)
T19 construct: also called Peptide No 17
T19 peptide: Biotin-SGSGIAPKRYKANYCSGE-NH2
Procedure: as §1

[20] = molecular target: T20, artificial myostatin linear peptide 29 (SMILES …)
T20 construct: also called Peptide No 29
T20 peptide: Biotin-SGSGHTHLVHQANPRGSA-NH2
Procedure: as §1

[21] = molecular target: T21, artificial myostatin linear peptide 33 (cysteine pairing not given here)
T21 construct: also called Peptide No 33
T21 peptide: Biotin-SGSGNPRGSAGPCCTPTK-NH2
Procedure: as §1

[22] = molecular target: T22, artificial myostatin linear peptide 27 (SMILES …)
T22 construct: also called Peptide No 27
T22 peptide: Biotin-SGSGQKYPHTHLVHQANP-NH2
Procedure: as §1

[23] = molecular target: T23, artificial myostatin linear peptide 35 (cysteine pairing not given here)
T23 construct: also called Peptide No 35
T23 peptide: Biotin-SGSGSAGPCCTPTKMSPI-NH2
Procedure: as §1

[24] = molecular target: T24, artificial myostatin linear peptide 37 (cysteine pairing not given here)
T24 construct: also called Peptide No 37
T24 peptide: Biotin-SGSGCCTPTKMSPINMLY-NH2
Procedure: as §1

[25] = molecular target: T25, artificial myostatin linear peptide 19 (cysteine pairing not given here)
T25 construct: also called Peptide No 19
T25 peptide: Biotin-SGSGRYKANYCSGECEFV-NH2
Procedure: as §1

Measured: binding result

B1: mouse monoclonal antibody 10B3 (antibody, V domains shown)
VH: EVQLQQSGPELVKPGASVKISCKASGYSFTGYFMHWVKQSHGNILDWIGNIYPYNGVSNYNQRFKAKATLTVDKSSSTAYMELRSLTSEDSAVYYCARRYYYGTGPADWYFDVWGTGTTVTVSS
VL: DIKMTQSPSSMYASLRERVTITCKASQDINSYLSWFQQKPGKSPKTLIYRANRLVDGVPSRFSGSGSGQDYSLTISSLEYEDMGIYYCLQCDEFPLTFGAGTKLELK
notes: Mouse IgG2a/kappa from hybridoma; also called 10B3 mouse parental; 10B3 parental
no binding: [1] | [2] | [3] | [4] | [5] | [6] | [7] | [8] | [9] | [10] | [11] | [12] | [13] | [14] | [15] | [16] | [17] | [18] | [19] | [20] | [21] | [22] | [23] | [24] | [25]
